Source: paper PMC9142731 (Virology Journal, 2022)

How the values were obtained:
Details in all cases: both partners purified
[1] = biological target: T1, SARS-CoV-2 nucleocapsid protein (WT), recombinant (Severe acute respiratory syndrome …, UniProt P0DTC9); test: SPR
T1 construct: also called SARS-CoV-2 NP; WT NP; source: bought: Sino Biological; not shown: His tag, C-terminal, kept

[2] = biological target: T2, NL63 nucleocapsid protein, recombinant (Human coronavirus NL63 (HCoV-NL63)., UniProt Q6Q1R8); test: ELISA
T2 construct: also called NL63 NP; source: bought: Sino Biological

[3] = biological target: T3, OC43 nucleocapsid protein, recombinant (Human coronavirus OC43 (HCoV-OC43)., UniProt P33469); test: ELISA
T3 construct: also called OC43 NP; source: bought: Sino Biological

[4] = biological target: T4, HKU1 nucleocapsid protein, recombinant (Human coronavirus HKU1 (isolate N1) …, UniProt Q5MQC6); test: ELISA
T4 construct: also called HKU1 NP; source: bought: Sino Biological

[5] = biological target: T5, MERS-CoV nucleocapsid protein, recombinant (MERS-CoV, strain , UniProt K9N4V7); test: ELISA
T5 construct: also called MERS-CoV NP; source: bought: Sino Biological

[6] = biological target: T6, 229E nucleocapsid protein, recombinant (Human coronavirus 229E (HCoV-229E)., UniProt P15130)
T6 construct: also called 229E NP; source: bought: Sino Biological

[7] = biological target: T7, SARS-CoV nucleocapsid protein, recombinant (Severe acute respiratory syndrome …, UniProt P59595)
T7 construct: also called SARS-CoV NP; source: bought: Sino Biological

B1: P301-F7 (antibody, V domains shown)
VH: QLQLQESGPGLVKPSETLSLTCTVSGGSISSTSYYWGWIRQPPGKGLEWIGSIYYSGSTYYNPSLKSRVTISVDTSKNQFSLKLSSVTAADTAVYYCARFSLYCSSTSCYENWFDPWGQGTLVTVSS
VL: QSVLTQPPSVSAAPGQKVTISCSGSSSNIGNNYVSWYQQLPGTAPKLLIYDNNKRPSGIPDRFSGSKSGTSATLGITGLQTGDEADYYCGTWDSSLSAGQVVFGGGTKLTVL
notes: source: 293 F cells, transient transfection, purified (Protein A beads)
In the case of B1, the Kd [1] is reported as 13.3 nM, the binding result [2] is reported as “no binding” and the binding result [3] is reported as “no binding”. B1: no binding [4]; no binding [5]; no binding [6]. It also gave a Kd [7] of 14.9 nM.
